In paper PMC6412040:

What was measured:
[1] = target: USP37^wt (isolated catalytic domain of USP37 from Danio rerio, residues 312–927) (Danio rerio) (UniProt E7F6T8)
[2] = target: USP37^mUIM1,2,3 (Danio rerio USP37 312–927 with mutations in all three UIMs) (Danio rerio) (UniProt E7F6T8)
Sequence of USP37^mUIM1,2,3 (Danio rerio USP37 312–927 with mutations in all three UIMs) (Danio rerio) (E7F6T8 312-927 V680G/S684A/A774G/S778A/A796G/S800A): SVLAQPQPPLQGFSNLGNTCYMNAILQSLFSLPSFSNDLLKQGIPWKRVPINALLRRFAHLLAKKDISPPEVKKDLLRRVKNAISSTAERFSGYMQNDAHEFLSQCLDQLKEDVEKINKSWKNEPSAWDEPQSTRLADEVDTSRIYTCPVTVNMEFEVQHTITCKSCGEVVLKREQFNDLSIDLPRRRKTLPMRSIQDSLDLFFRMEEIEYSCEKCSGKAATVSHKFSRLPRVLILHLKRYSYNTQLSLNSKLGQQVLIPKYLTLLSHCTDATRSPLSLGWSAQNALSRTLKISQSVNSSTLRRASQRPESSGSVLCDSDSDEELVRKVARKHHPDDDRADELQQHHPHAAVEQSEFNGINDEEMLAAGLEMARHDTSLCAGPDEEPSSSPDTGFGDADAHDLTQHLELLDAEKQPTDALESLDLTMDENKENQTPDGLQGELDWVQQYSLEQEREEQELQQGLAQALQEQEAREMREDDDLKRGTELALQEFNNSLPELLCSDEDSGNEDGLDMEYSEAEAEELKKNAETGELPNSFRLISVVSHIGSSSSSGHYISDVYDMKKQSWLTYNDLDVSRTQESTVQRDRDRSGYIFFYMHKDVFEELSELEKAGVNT

Sequence of USP37^wt (isolated catalytic domain of USP37 from Danio rerio, residues 312–927) (Danio rerio) (E7F6T8 312-927): as the sequence (E7F6T8 312-927 V680G/S684A/A774G/S778A/A796G/S800A) above, with G369V, A373S, G463A, A467S, G485A, A489S counted along it

Substance: K11-linked di-Ub (from UniProt P0CG48 1-76; P0CG48 1-76) (complex)
- KM of cleavage of K11-linked di-Ub (1 part IQF di-Ub, 4 parts unlabeled chain), Michaelis-Menten analysis, 25 nM enzyme [1]: 11 µM
- kcat of cleavage of K11-linked di-Ub (1 part IQF di-Ub, 4 parts unlabeled chain), Michaelis-Menten analysis [1]: 0.19 s⁻¹
- KM of cleavage of K11-linked di-Ub (1 part IQF di-Ub, 4 parts unlabeled chain), Michaelis-Menten analysis, 25 nM enzyme [2]: 19 µM
- kcat of cleavage of K11-linked di-Ub (1 part IQF di-Ub, 4 parts unlabeled chain), Michaelis-Menten analysis [2]: 0.072 s⁻¹

Substance: K48-linked di-Ub (from UniProt P0CG48 1-76; P0CG48 1-76) (complex)
- KM of cleavage of K48-linked di-Ub (1 part IQF di-Ub, 4 parts unlabeled chain), Michaelis-Menten analysis, 1.25 nM enzyme [1]: 0.4 µM
- kcat of cleavage of K48-linked di-Ub (1 part IQF di-Ub, 4 parts unlabeled chain), Michaelis-Menten analysis [1]: 0.23 s⁻¹
- KM of cleavage of K48-linked di-Ub (1 part IQF di-Ub, 4 parts unlabeled chain), Michaelis-Menten analysis, 1.25 nM enzyme [2]: 0.72 µM
- kcat of cleavage of K48-linked di-Ub (1 part IQF di-Ub, 4 parts unlabeled chain), Michaelis-Menten analysis [2]: 0.015 s⁻¹

Substance: K63-linked di-Ub (from UniProt P0CG48 1-76; P0CG48 1-76) (complex)
- KM of cleavage of K63-linked di-Ub (1 part IQF di-Ub, 4 parts unlabeled chain), Michaelis-Menten analysis, 12.5 nM enzyme [1]: 1.7 µM
- kcat of cleavage of K63-linked di-Ub (1 part IQF di-Ub, 4 parts unlabeled chain), Michaelis-Menten analysis [1]: 0.027 s⁻¹
- KM of cleavage of K63-linked di-Ub (1 part IQF di-Ub, 4 parts unlabeled chain), Michaelis-Menten analysis, 12.5 nM enzyme [2]: 3.6 µM
- kcat of cleavage of K63-linked di-Ub (1 part IQF di-Ub, 4 parts unlabeled chain), Michaelis-Menten analysis [2]: 0.008 s⁻¹
